One substance from paper PMC10690772 can be followed below.

As a reminder, the stoichiometry N is the number of molecules, sites or subunits per partner or assembly.

This assay addresses ConCv5 KIKO 473T SOSIP soluble gp140 Env trimer (HIV-1 (clade C consensus)). As to the kind of experiment: SEC; analytical size exclusion chromatography of 10 µg of the final purified protein pool. Background: In gel filtration, larger molecules generally elute earlier.

The substance “ConCv5 KIKO 473T SOSIP soluble gp140 Env trimer (complex)” registered a stoichiometry N of 3.
